In one test the target is T1, VPS18 (human, UniProt Q9P253 2-973).
T1 sequence (looked up): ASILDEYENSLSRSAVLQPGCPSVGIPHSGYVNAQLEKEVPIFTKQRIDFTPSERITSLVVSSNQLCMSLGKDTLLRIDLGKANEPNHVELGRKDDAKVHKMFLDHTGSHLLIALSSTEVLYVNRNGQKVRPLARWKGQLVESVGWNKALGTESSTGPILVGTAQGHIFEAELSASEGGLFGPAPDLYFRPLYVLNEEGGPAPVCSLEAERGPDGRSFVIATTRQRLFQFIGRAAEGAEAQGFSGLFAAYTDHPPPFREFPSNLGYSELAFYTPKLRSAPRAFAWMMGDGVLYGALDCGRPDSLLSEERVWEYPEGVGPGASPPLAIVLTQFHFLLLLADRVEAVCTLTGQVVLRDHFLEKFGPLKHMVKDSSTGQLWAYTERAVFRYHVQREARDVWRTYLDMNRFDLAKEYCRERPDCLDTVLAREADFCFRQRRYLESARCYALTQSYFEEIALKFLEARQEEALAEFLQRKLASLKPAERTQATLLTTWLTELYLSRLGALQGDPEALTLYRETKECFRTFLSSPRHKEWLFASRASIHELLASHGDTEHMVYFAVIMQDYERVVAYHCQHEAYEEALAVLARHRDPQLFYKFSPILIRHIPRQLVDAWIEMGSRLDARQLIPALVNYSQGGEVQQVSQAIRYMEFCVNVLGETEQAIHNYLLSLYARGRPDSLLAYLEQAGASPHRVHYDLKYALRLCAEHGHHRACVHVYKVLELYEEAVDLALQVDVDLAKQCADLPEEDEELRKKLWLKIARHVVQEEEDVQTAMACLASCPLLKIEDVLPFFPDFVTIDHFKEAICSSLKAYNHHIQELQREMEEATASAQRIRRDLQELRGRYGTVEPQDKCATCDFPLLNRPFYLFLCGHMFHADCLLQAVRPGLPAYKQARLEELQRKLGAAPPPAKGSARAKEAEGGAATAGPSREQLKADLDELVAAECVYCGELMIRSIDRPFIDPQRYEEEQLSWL
As to the kind of experiment: IP/MS, LZTR1 wild type-FLAG, U87. Put shortly: (§1)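 Extracted peptides in 3% acetonitrile/0.1% formic acid ran on a 50 cm C18 column into an Orbitrap Fusion, with MaxQuant identification and spectral counting.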

The next test deals with T2, SNX14 (human, UniProt Q9Y5W7 1-946, limits assumed).
T2 sequence (looked up): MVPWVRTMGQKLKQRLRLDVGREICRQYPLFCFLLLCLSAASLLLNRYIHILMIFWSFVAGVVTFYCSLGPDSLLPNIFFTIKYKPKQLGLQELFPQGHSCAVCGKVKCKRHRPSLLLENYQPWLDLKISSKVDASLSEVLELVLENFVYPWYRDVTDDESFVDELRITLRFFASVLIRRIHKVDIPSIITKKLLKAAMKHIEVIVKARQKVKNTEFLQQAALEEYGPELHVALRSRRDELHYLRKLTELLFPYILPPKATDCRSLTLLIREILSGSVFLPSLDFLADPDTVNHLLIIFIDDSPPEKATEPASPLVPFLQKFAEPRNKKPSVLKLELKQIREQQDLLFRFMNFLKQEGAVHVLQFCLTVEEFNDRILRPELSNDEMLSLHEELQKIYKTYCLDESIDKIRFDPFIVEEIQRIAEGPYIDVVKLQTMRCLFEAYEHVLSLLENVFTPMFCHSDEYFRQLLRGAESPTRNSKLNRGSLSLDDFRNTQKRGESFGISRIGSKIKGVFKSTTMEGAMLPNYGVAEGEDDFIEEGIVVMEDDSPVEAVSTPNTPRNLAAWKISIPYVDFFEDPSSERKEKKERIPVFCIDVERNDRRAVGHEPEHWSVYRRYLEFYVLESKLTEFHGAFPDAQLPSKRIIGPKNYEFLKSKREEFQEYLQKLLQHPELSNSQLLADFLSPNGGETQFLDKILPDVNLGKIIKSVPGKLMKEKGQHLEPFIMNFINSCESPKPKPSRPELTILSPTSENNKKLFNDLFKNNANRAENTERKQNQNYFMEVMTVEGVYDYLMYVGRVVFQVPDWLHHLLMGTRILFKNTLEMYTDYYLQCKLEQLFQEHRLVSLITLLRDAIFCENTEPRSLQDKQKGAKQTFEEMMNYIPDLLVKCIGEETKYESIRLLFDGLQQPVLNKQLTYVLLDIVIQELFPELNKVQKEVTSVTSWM
As to the kind of experiment: IP/MS, LZTR1 wild type-FLAG, U87. Put shortly:
as §1

B1: LZTR1-FLAG (other, human, UniProt Q8N653 1-840, looked up)
chain: MAGPGSTGGQIGAAALAGGARSKVAPSVDFDHSCSDSVEYLTLNFGPFETVHRWRRLPPCDEFVGARRSKHTVVAYKDAIYVFGGDNGKTMLNDLLRFDVKDCSWCRAFTTGTPPAPRYHHSAVVYGSSMFVFGGYTGDIYSNSNLKNKNDLFEYKFATGQWTEWKIEGRLPVARSAHGATVYSDKLWIFAGYDGNARLNDMWTIGLQDRELTCWEEVAQSGEIPPSCCNFPVAVCRDKMFVFSGQSGAKITNNLFQFEFKDKTWTRIPTEHLLRGSPPPPQRRYGHTMVAFDRHLYVFGGAADNTLPNELHCYDVDFQTWEVVQPSSDSEVGGAEVPERACASEEVPTLTYEERVGFKKSRDVFGLDFGTTSAKQPTQPASELPSGRLFHAAAVISDAMYIFGGTVDNNIRSGEMYRFQFSCYPKCTLHEDYGRLWESRQFCDVEFVLGEKEECVQGHVAIVTARSRWLRRKITQARERLAQKLEQEAAPVPREAPGVAAGGARPPLLHVAIREAEARPFEVLMQFLYTDKIKYPRKGHVEDVLLIMDVYKLALSFQLCRLEQLCRQYIEASVDLQNVLVVCESAARLQLSQLKEHCLNFVVKESHFNQVIMMKEFERLSSPLIVEIVRRKQQPPPRTPLDQPVDIGTSLIQDMKAYLEGAGAEFCDITLLLDGHPRPAHKAILAARSSYFEAMFRSFMPEDGQVNISIGEMVPSRQAFESMLRYIYYGEVNMPPEDSLYLFAAPYYYGFYNNRLQAYCKQNLEMNVTVQNVLQILEAADKTQALDMKRHCLHIIVHQFTKVSKLPTLRSLSQQLLLDIIDSLASHISDKQCAELGADI
notes: Expressed in HEK 293T, HeLa or U87 cells; used as cell lysate; also called LZTR1 wild type-FLAG; LZTR1 WT; not shown: FLAG tag at the C-terminus
B1: the binding result with VPS18 and with SNX14 was “binds” in each case.
